Experimental findings from article PMC8794821, “SNX27 suppresses SARS-CoV-2 infection by inhibiting viral lysosome/late endosome entry” (Proceedings of the National Academy of Sciences of the …, 2022) are described below.

For the assay, the target named is PDZ domain of SNX27 (residues 40 to 135) (human, UniProt Q96L92 40-135). The assay can be described thus: ITC; MicroCal iTC200, 25 °C; ACE2-PBM peptide (125 µM, 5% DMSO) in the syringe, PDZ protein (100 µM, 5% DMSO) in the cell; 20 mM Tris pH 8.0, 150 mM NaCl. The conditions noted are these: both partners purified. On the technique in general: ITC needs no label: the signal is the heat of the interaction.

The Kd is a measure of binding affinity in units of concentration.

No end group written: not given here.

B1: ACE2-PBM peptide (-DDVQTSF-COO−) (peptide)
peptide: DDVQTSF-OH
notes: also called human ACE2-PBM; source: synthetic peptide (Beijing SciLight Biotechnology Ltd. Co.)
For B1, the Kd turned out to be 20 µM.
